± gives the uncertainty stated by the source.
Experiment: protein stability index of a GFP-peptide fusion (yeast GPS) (PSI 1-4); higher = more stable; sorted into four equal gates, so the index is relative within each strain
Summary of the method: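 Each library plasmid carries Cherry plus GFP with a tiled 17-residue yeast protein peptide fused downstream, and the pooled library was carried in yeast. Mid-log cultures in leucine-free medium were sorted into four equal gates by GFP/Cherry ratio. Reads from Illumina sequencing of PCR-amplified plasmids from each gate were assigned to strains by barcodes. Per peptide, the protein stability index was computed as the summed products of gate read frequency and gate number.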

| Sequence | protein stability index (doa10∆) | protein stability index (pdr5∆) | protein stability index (san1∆) | protein stability index (ubr1∆) |
| --- | --- | --- | --- | --- |
| NPEPNKKNIQKAKSNQT [IRR1] | 2.25 ± 0.062 | 2.43 ± 0.062 | 2.56 ± 0.13 | 2.56 ± 0.051 |
| NPIHVSRHFASYANLPG [FAS1] | 2.23 ± 0.059 | 2.36 ± 0.05 | 1.94 ± 0.081 | 2.11 ± 0.038 |
| NPLIELTPIQKKIMDET [ITC1] | 2.67 ± 0.087 | 3.08 ± 0.08 | 3.24 ± 0.057 | 3.07 ± 0.076 |
| NPNTNTNSNNTPLQSQL [PGD1] | 2.91 ± 0.071 | 2.96 ± 0.066 | 2.88 ± 0.058 | 2.98 ± 0.07 |
| NPRRLEIKDGRSLFLRN [YMR153W/NUP53] | 3.27 ± 0.1 | 2.9 ± 0.11 | 3.2 ± 0.087 | 3.22 ± 0.085 |
| NPSEFTPNMVNSEISNL [SSN2] | 2.66 ± 0.08 | 2.5 ± 0.1 | 2.58 ± 0.08 | 2.91 ± 0.062 |
| NPSVKQGEVGAVFIVPK [SWP82] | 3.23 ± 0.26 | 3.23 ± 0.15 | 3.28 ± 0.12 | – |
| NPSYPGMMSTTGTARLN [YJL039C/NUP192] | 2.97 ± 0.097 | 3.1 ± 0.053 | 3.13 ± 0.077 | 3.24 ± 0.076 |
| NQASTSKRVYKILSPTM [CDC53] | 2.58 ± 0.062 | 2.57 ± 0.05 | 2.54 ± 0.051 | 2.59 ± 0.067 |
| NQILMSVNFFVSLLKKN [RPL1A] | 1.84 ± 0.052 | 2.35 ± 0.046 | 2.15 ± 0.075 | 2.39 ± 0.04 |
| NQPHQSQTPSFNTNSSF [YOR098C/NUP1] | 2.64 ± 0.042 | 2.99 ± 0.034 | 2.93 ± 0.036 | 3.047 ± 0.03 |
| NQVGTDELILPLPSHAL [YDL116W/NUP84] | 3.09 ± 0.057 | 3.09 ± 0.045 | 2.83 ± 0.052 | 3.06 ± 0.04 |
| NRANVSKDELREKLAEV [RPS24A] | 3.53 ± 0.089 | 3.24 ± 0.11 | 3.37 ± 0.072 | 3.28 ± 0.088 |
| NRGVKLEIVYGYALRDV [RPP1] | 2.54 ± 0.084 | 2.64 ± 0.077 | 2.46 ± 0.092 | 3.04 ± 0.065 |
| NRRLFKKCIDFFEMLIS [RRI2] | 2.2 ± 0.037 | 2.05 ± 0.045 | 2.12 ± 0.058 | 2.02 ± 0.03 |
| NRRWTQRRGPLVVYAED [RPL4A] | 2.44 ± 0.16 | 2.48 ± 0.17 | 2.12 ± 0.093 | 2.16 ± 0.1 |
| NRTFTDPPFRIEEQGWG [TAF14] | 3.11 ± 0.067 | 3.24 ± 0.057 | 3.11 ± 0.1 | 3.07 ± 0.054 |
| NSAIANEQEEKSEEVKA [RPC37] | 2.61 ± 0.08 | 2.79 ± 0.11 | 2.61 ± 0.055 | 2.62 ± 0.08 |
| NSITSGGLKSCDLDFPL [YDL116W/NUP84] | 2.78 ± 0.078 | 3.11 ± 0.068 | 3.32 ± 0.072 | 3.2 ± 0.063 |
| NSKNDSANVELFKRDCN [YCS4] | 2.75 ± 0.071 | 3.05 ± 0.089 | 3.25 ± 0.12 | 3.17 ± 0.07 |
| NSLIEEINERSETQTKD [YCG1] | 3.07 ± 0.12 | 3.33 ± 0.12 | 3.17 ± 0.087 | 2.97 ± 0.1 |
| NSSKPAFSFGAKSNEDK [YJL041W/NSP1] | 3.19 ± 0.1 | 3.13 ± 0.056 | 3.32 ± 0.077 | 3.33 ± 0.068 |
| NSSNYAELFNNDIKLFV [PRP8] | 2.44 ± 0.041 | 2.48 ± 0.036 | 2.26 ± 0.048 | 2.27 ± 0.029 |
| NSSVGNKTDAQAPTTGF [YJL041W/NSP1] | 3 ± 0.072 | 3.15 ± 0.056 | 3.19 ± 0.058 | 2.96 ± 0.094 |
| NSTLKKVESQETLNDTI [YCS4] | 2.12 ± 0.1 | 2.43 ± 0.092 | 2.37 ± 0.13 | 2.1 ± 0.11 |
| NSWFDVTWRTFTGDFLR [FAS1] | 2.75 ± 0.11 | 1.93 ± 0.093 | 1.98 ± 0.12 | 2.61 ± 0.069 |

— the supplement of paper PMC9732359
